Reference: the DeepSol protein solubility set

Test: soluble on expression in E. coli; label from the status in PepcDB or PDB records

Sequence	soluble on expression in E. coli
MDAPRINKWLKPLSALYGVGVRLRNYLFDKNVLISNSFDIPIVCVGNITIGGTGKTPHVEYLIRLLHPRYRVAVVSRGYKRKTKGMIVATEGSTAWDIGDEPRQIKRKYPDLTVIVDADRSRAIGYLCDLAEEQRPQLIVLDDGFQHRKVKADLNIVLTDYNRILTKDYLLPAGRLREPAGSIQRADMVILTKCPDDLAPIDLRAAKRDLALYPHQKLFFSKFLYGQGLKPLFSDQSPSAEVRSALAIAGIASPKLFFREIRTRFPSGTDRIYPDHHEFTDREICLLIQDWHELHRKDANAIVVCTEKDAMRLALRQSSFPQEMQERFYYLPVEVKLMFDQEKVFVDRLLGVIQHKKLEHHHHHH	not soluble
MSKIRVHEYAKKHNISSKDLMTKLKEMNIEVSNHMTMLDDEVVNKLDNEYQAEKPSVADEFEVEEKVVRSKKNSNKKKKKGKGNEDKRQENFAGRQQTQTVETPDKITFSGSLTVGDLAKKLSKEPSEIIKKLFMLGIMATINQDLDKDTIELIANDYGIEVEEEVIVSETEFETFIDEQDDEENLKERPAVVTIMGHVDHGKTTLLDSIRNSKVTAGEAGGITQHIGAYQVELNDKKITFLDTPGHAAFTTMRARGAQVTDITIIVVAADDGVMPQTVEAINHAKAAGVPIIVAVNKMDKPAANPDRVMQELTEYELVPEAWGGDTIFVPISAIQGEGIDNLLEMILLISEVEEYKANPNRYATGTVIEAQLDKGKGTIATLLVQNGTLRVGDPIVVGTSFGRVRAMVSDIGRRVKVAGPSTPVEITGLNEVPQAGDRFMAFADEKKARQIGESRAQEALLAQRGEKSKLSLEDLFQQIQEGDVKEINLIVKADVQGSVEAMAASLRKIDVEGVKVKIIHTGVGAITESDIILASASNAIVIGFNVRPDVNAKRTAELENVDIRLHRIIYKVIEEIEAAMQGMLDPEFEEKVIGQAEVRQTFKVTKVGTIAGCYVTDGKITRDSGVRIIRDGVVIFEGQLDTLKRFKDDVKEVAQNYECGITIERYNDLKEGDIIEAYIMEEVKR	not soluble
MLPAVPPQQWALSAGNGSSEVEVVPFQEVWGRSYCRALERLVDVVSEYPSEVEHMFSPSCVSLLRCTGCCGDENLHCVPVETANVTMQLLKIRSGDRPSYVELTFSQHVRCECRPLREKMKPERCGDAVPRR	soluble
MDRLSYAIGDKAVLNNIRVQFQPGSVTALLGPNGAGKSTLLKALCQEIPSAQGSIKLGHCQLVDWPRAELAKSLAVLPQHASLTFPFTVDEVVAMGLYPLTLSQKEGQQLVTKWLAEVGVLHLARRSYPTLSGGEKQRVQLARVLTQLSQSPFPPILLLDEPTSALDLAQQHKVLALAKNLAHKHAYTVIVVLHDLNQAARYSDRVIVLKQGEIVSEGTPNDALSIDIIRQVWDYEPEFIPAPQGDYPLIF	not soluble
MASSLNEDPEGSRITYVKGDLFACPKTDSLAHCISEDCRMGAGIAVLFKKKFGGVQELLNQQKKSGEVAVLKRDGRYIYYLITKKRASHKPTYENLQKSLEAMKSHCLKNGVTDLSMPRIGCGLDRLQWENVSAMIEEVFEATDIKITVYTL	soluble
MGSDKIHHHHHHMNITPKSIIGDIKKKNGNINRVIFTGCGASMADLYPGYYFISHESKHLLSSIMQANEFNYDTPKDVNENTIVITASLGGSTPESVEATKHARELGAHVVTLSHVPNSAIINEAEYSLVHGFEEDYAHKTEKMTLALQLAIEIVNQFEGYDYYADAQKAFEGLFNLINQEANMVAPAAEEFVTKYKDENTIYVLGSGASADVAYSTASFLFMEMQWISSPTIHSGEFFHGPFELALKDTPYLLFMSDGNTRHLDARAMAFLQRFDTKLTVIDAKDHGLASIASSNVIDYFNPMLITGVMRVYAEKLAEARQHPLTQRRYMWKLENY	not soluble
LTYLNYYGKEKPELVYTKIAQSSQQDAFNISKRSQKEMDKQKTWAMVLNQDGQIVQSYRLPQQLKRHYTNADMVKFSRWYLDDYPVFSYVRGQQILVFGYPKKYSLAKFNFYLNTQFIK	not soluble
MQLSKFFQKPQLLFRVAQPKDKENILKFLDAHFAKEEPCARALKLSPETSRGIFTTTVTRCLNFPFSTVVLQENDEIAACLLASVWNRTDPIDSADFNSSGMPENLKLFVQFINSAHSNFWKIAPPNVNSIIHREIGSVAPQFTRKGIATRMVTTNMTKTNLKKYNIGGVLSETSSLANQIVLQKAGFKCLKELPYSAIVDSKGNRVLRPDDGTTSLCLNFKPIEEYENLPE	not soluble
EAIKWDKAPCRFCGTGCGVLVGTQQGRVVACQGDPDAPVNRGLNCIKGYFLPKIMYGKDRLTQPLLRMKNGKYDKEGEFTPITWDQAFDVMEEKFKTALKEKGPESIGMFGSGQWTIWEGYAASKLFKAGFRSNNIDPNARHCMASAVVGFMRTFGMDEPMGCYDDIEQADAFVLWGANMAEMHPILWSRITNRRLSNQNVTVAVLSTYQHRSFELADNGIIFTPQSDLVILNYIANYIIQNNAINQDFFSKHVNLRKGATDIGYGLRPTHPLEKAAKNPGSDASEPMSFEDYKAFVAEYTLEKTAEMTGVPKDQLEQLAQLYADPNKKVISYWTMGFNQHTRGVWANNLVYNLHLLTGKISQPGCGPFSLTGQPSACGTAREVGTFAHRLPADMVVTNEKHRDICEKKWNIPSGTIPAKIGLHAVAQDRALKDGKLNVYWTMCTNNMQAGPNINEERMPGWRDPRNFIIVSDPYPTVSALAADLILPTAMWVEKEGAYGNAERRTQFWRQQVQAPGEAKSDLWQLVQFSRRFKTEEVWPEDLLAKKPELRGKTLYEVLYATPEVSKFPVSELAEDQLNDESRELGFYLQKGLFEEYAWFGRGHGHDLAPFDDYHKARGLRWPVVNGKETQWRYSEGNDPYVKAGEGYKFYGKPDGKAVIFALPFEPAAEAPDEEYDLWLSTGRVLEHWHTGSMTRRVPELHRAFPEAVLFIHPLDAKARDLRRGDKVKVVSRRGEVISIVETRGRNRPPQGLVYMPFFDAAQLVNKLTLDATDPLSKETDFKKCAVKLEKV	soluble
MGHHHHHHSHEVFKNAQPPIRDATDLRENMQNAVVSFKELCGLSSVANLMQCMLAVSPRFLGPDNTPLVVLNLSEQYPTMELQGIVPEVLKKIVTTYDMMIQSLKALIENADAVYEKIVHCQKAAMEFHEHLHSIGTKEGLKERKLQKAVESFTWNITILKGQADLLKYAKNETLENLKQIHFAAVSCGLNKPGTENADVQKPRRSLEVIPEKANDETGE	not soluble
MTRKPLTLTGSALAVLRALVERGPSTRPQLGQDLGLSRPTMSAAMAELMEAGLVEPIGSVQGGMGRRAVEYRVATHAGHVIAVDAGSTHIRLRLSTLDRRLLHASLHPLPNSQYSLTPQISSVVADAVAEALEKTEVDWGPLLAMVIAIPTRVVGPEGDTAATDQEVIFTNFTPPPQVDCTLVNNVNCAAVAEYHYGAARGHQTFAFLQVGVKIGLGLMLNGQILPGVNGAAGEIGHITFPFAPGLTPVPGEAERYIGTEAFMARVRADWPKGSGRPPADTYELLARAGEGDAAALRHVEGHAAEIGAVIAICVSVIDPGLVVLGGGYGASPLLRPKVEEVVRHLAFPAEITTSTLAAEATVLGAERLAVDRAVSVLLGLPA	not soluble
FSDAFETAFFSVSNIGLHARAYKDKLFVHTASLRSGNPYKQVDLLVLDAKGETVLQGATDDNGNALLNYTLNAGHVLVSRNGRDISILPFNQPALDLSEFAVAGRENPWFDVFAWSGRDLYRPGEMLRISALLRDRDGKPVKPQPVFLRLKQPDGKTFRETRLQPAEQGYLEFTQKIPSDAPTGRWRVEFRTDPASKEAVQGLAVRVEEFLPERMKLELSSAQPVLRAKAPFTLTADAAYLYGAPAAGNRFTANLAVAVEQHPLDNMPGWFFGDATL	not soluble
MAHHHHHHMEPLIIDNLYKFGDEEVRLGIDEAGRGPVLGPMVYAGFYCNKEHEKLLKEMKIDDSKKISEADREMMFHKLNNSSLPFGWRIHVLMPQDISAKMLKKQKYNLNEISHDTAISIIDHVISRGCNLTEVFVDTVGKPSVYEEKLKRLFPHIKCTVKEKADSLYPVVSAASICAKVTRDFLIKKWKYEEPLVNIDKGFGSGYPGDPITKNFLKNNFDTVFGFPSIVRFSWSTADNMLETMGEQIEWYDDIENNDSKAIKRKTPFDYSKLQKPFVQRSLFYSKVGLDLVENL	not soluble
MSTSSVRFAFRRFWQSETGPKTVHFWAPTLKWGLVFAGFSDMKRPVEKISGAQNLSLLSTALIWTRWSFVIKPRNILLASVNSFLCLTAGYQLGRIANYRIRNGDSISQLCSYILSGADESKKEITTGR	not soluble
MGHHHHHHSHMAKLLSDLSVDSARCKPGNNLTKSLLNIHDKQLQHDPAPAHTSIMSYLNKLETNYSFTHSEPLSTIKNEETIEPDKTYENVLSSRGPQNSNTRGMEEASAPGIISALSKQDSDEGSETMALIEDEHNLDNTIYIPFARSTPEKKSPLSKRLSPQPQIRAATTQLVSNSGLAVSGEENKLCTPVICSSSTKEAEDAPEKLSRASDMKDTQLLKKIKEAIGKIPAATKEPEEQTACHGPSGCLSNSLQVKGNTVCDGSVFTSDLMSDWSISSFSTFTSRDEQDFRNGLAALDANIARLQKSLRTGLLEK	not soluble
GEEDLCAAFNVICDNVGKDWRRLARQLKVSDTKIDSIEDRYPRNLTERVRESLRIWKNTEKENATVAHLVGALRSCQMNLVADLVQEVQQARDLQNRSGAMSPMSWNSDASTSEASHHHHHH	soluble
GHMKQSHFFAHLSRLKLINRWPLMRNVRTENVSEHSLQVAMVAHALAAIKNRKFGGNVNAERIALLAMYHDASEVLTGDLPTPVKYFNSQIAQEYKAIEKIAQQKLVDMVPEELRDIFAPLIDEHAYSDEEKSLVKQADALCAYLKCLEELAAGNNEFLLAKTRLEATLEARRSQEMDYFMEIFVPSFHLSLDEISQDSPL	soluble
SLPWTVRTETCRMPFRIDPKKPFGDEIRRAGLELIDDAVTILRDQPSGSHEAVHDARKRFKRLRALYRLIRKVAPDFAREENTRFRDIARSLAFARDATALVETAEYLEAFAASDTQGEALRSVTVMLRERRDDALDHEAGLDEAIAAAIAGCEKGRERLEDLSLPDDLNKTARLVRTGWAKQRVKARKALSCCREQADVEHFHELRKAGQTYWMHLGLMRRLWPSAMRAKRADTKRLVDILGHEHDLSVLTAVADREPDRFGNGERLALLLAAIIERQQALRAEGLVLADEVFSESARTESRIVGLLWRQAAK	not soluble
MGSDKIHHHHHHMGYRTLKSIFHEHNESKMKEEYTKRFNSLASFNTNINIIPMENGKKVNDLEYPLFFMVTKNLSKKQELISINSRKIDRALNSLPYAAREQYFNDLLIDELQSTNEIENVFSTKQEIAHALNNQASEFLKFRGLVDQYKEIELNKKIKVDNVRDIRAIYDKLVSNEINEQDKLDGELFRKNFVGVHDGSTNKYIHVGLQPETKIVEYIGEMLTFLKYFDAPQPFKIMASHYLFEYIHPFYDGNGRVGRFIIAKLLSDYYDNYTALTFSYVINRNKSKYYKAFMTASNHLNCGDLTEFIDTMLELLIAGQERILDELIPKMDATEKLTLYLTSHYKQIDYEFLYLLSMDKLFGNKRNRLTLIDLENILGVGRVKINNTIKKYDNYLVKIKSRPIIYEISDEFLNSIIK	not soluble
MARGPKKHLKRLAAPKAWMLDKLGGVFAPRPSTGPHKLRESLPLLIFLRNRLKYALNGAEVTKIVMQRLVKVDGKVRTDPTYPAGYMDVITLEKTGEFFRLVYDVKGRFVIHRISAEEAKYKLCKVKKTQLGAKGVPFLVTHDGRTIRYPDPLIHANDSVQVDIASGKITDYIKFDSGNLCMITGGRNLGRVGTVVNRERHPGSFDIVHIKDSQGHVFATRLTNVFIIGKGNKPYISLPKGKGVKLSIAEERDKRLAAKTH	not soluble
MGSDAFDEMDEIWALYADDGAQALDAMEASLLALQAGEDAAAHVGPLFRAVHTFKGNSRVLGLSVVESRAHLCEDLIGLVRDAGVPMDGEIVEILLFASDTLRAMLEETAASRADVEGTGSEALMDQLRSKIARCSRSHHHHHH	soluble
